Here are results for 14 sequences from a protein production outcome set (Wang et al. 2014).

The series is described as follows: label from the status in PepcDB records.

For “MSKKQKSKYIVIFGCGRLGSLIANLASSSGHSVVVVDKNEYAFHRLNSEFSGFTVVGDAAEFETLKECGMEKADMVFAFTNDDSTNFFISMNARYMFNVENVIARVYDPEKIKIFEENGIKTICPAVLMIEKVKEFIIGSEED”, the protein production result is reported as “not failed”.
Take “MSKKTDVVKEYTRIDSKRGLSITTGANRMKLFDRRVLELGRGEYGKLWNVIILGLLISFSYIVQGLLIAVILNGVFAGTPLHESRLYFAAVALLIVLRWIMIRENDRIAARTASNIAMSLRRRMYHKLYELGPGWIMTQKSGVIQATLVDGAEALQNYYGRFLPQVVVSIAAGISIVAILFYVDMTIGLVIGGMMIAALIQPLAIYKGVGKGIRIWFVAMPRLFAEYVDNIQGIVTLKSFNASQRQGKILYQRTNDLYDAEIGILRDEILWSVPPGLVAAICGTVAIIIGAIRMDAGALSAAGLLFVLLLVREALRPVTDLRQTIHFSFSGMGAAEGVLDILEATPLAAVTARPTPSSIPHSFAFEDVTFRYRKTDASAVENLSFKVEPGDKVALVGRSGSGKTTVTSLLMRYFDPQAGIIRLGGEDIRHIPADELHAMYSIVSQDTFLFHGTVRDNLLMAKPEASQEELERAARAAAAHKFIATLPDSYDTLIGERGVRLSGGERQRIAIARAILKDAPILILDEATSSVDVANETLIREAIAGLAHDRTTLLISHRLSAVRDADRIYVLEKGRLMEAGTHSKLVGCNGNYSALVRAEEECI”: the protein production entry was “failed”.
The result for “MSKLAQIVQKLKKQGIEAAVLSDPVSINYLTGFYSDPHERLMFLFLFADQEPLLFLPELDALRAKSILDISVTGYLDFENPLEKIKTLLPKTNYSKIALEFDNLNVTKFKGLETIFSGQFTNLTPLINRMR” reads “not failed”.
For the sequence “MSKLEFLAFYDELTGLPNKNSLIRWLNLKVSQMDCIDTYLIFLEVRDLEKLNVTYGYDLVDELIIHISKRIKDIAGEGNKAFKIGFDRFAIICKSENISDFIERMLSQLLLPYNVNGNLIRVNFNIGAAQIENSNEAAANLMRRCDLALIKAKEEGLNEYVIFKPSIEIQTLEHHHHHH”, the protein production result is listed as “not failed”.
Then “MSKLIGMLLNDKQVYVGPFLRGKKGILLAVESLKGNTFDDKQWVVDRAQKKSEREMELKVPYEQSLKEIADKFQSYNFRGSGFVAFSTQNVTISGICKDVIDESVAMPPSVGPRMPIYPLGSPGIRKSMFYG”, with “not failed”; and “MSKLKTIALTASGLSVCPGFLYAQNTSSHQIGLAIMRLNSSILDLPPTKQYFQSGSLWSELRQGFRMGEVNPELVRRHESKFIASHSYFNRVINRSRPYMYHIANEVKKRNMPAEAALLPFIESAFVTKAKSHVGASGLWQFMPATGRHYGLEKTPVYDGRHDIYAATDAALNYLQYLYGLFGDWPLAFAAYNWGEGNVGRAINRARAQGLEPTYENLRMPNETRNYVPKLLAVRNIIAAPQSFGMNISDIDNKPYFQAVEPDRPLDNEAIARLAGITQSELLALNPAFNVPAFIPKSKRKLLLPVASVQTFQSNYLNAAPDSLFSWEVYTPAAKTSLSDISTATGMSIADIKRLNNLNGNLVNAGRSILVAKNGKTLQTASESVVSIDIDNTPNTYRSNMPAGTVNVGIARIRPAAAQTADITVAPLPQKTVRTEPDPLVRIAEPALATAAAQPQTEKQTAMPSETQTATLAQIVPQNDMQAADELMQLVARNNLRRQAEETISAVIGTPDTVAEHNISSSPQHTVAADGKRRVRLETRVAKAADGEAEISPLHASIHRVVEGDTLFNIAKRYNVSVADLIVANNIKGNTIQKGQVLRLAQAAPAQTRIEKVSYTARKGDTFKSIAARFNIHIDDIRRLNPNLNTINPGQRVKLIGS”, with “failed”; and “MSKMRFFALQELSNRKPLEITTPSNKLSDYYASHVFDRKKMQEYLPKEAYKAVVDATEKGTPISREMADLIANGMKSWAKSLNVTHYTHWFQPLTDGTAEKHDGFIEFGEDGEVIERFSGKLLIQQEPDASSFPNGGIRNTFEARGYTAWDGSSPAFVVDTTLCIPTIFISYTGEALDYKTPLLKALAAVDKAATEVCQLFDKNITRVFTNLGWEQEYFLVDTSLYNARPDLRLTGRTLMGHSSAKDQQLEDHYFGSIPPRVTAFMKELEIECHKLGIPVKTRHNEVAPNQFELAPIFENCNLANDHNQLVMDLMKRIARKHHFAVLFHEKPYNGVNGSGKHNNWSLCTDTGINLFAPGKNPKGNMLFLTFLVNVLMMVHKNQDLLRASIMSAGNSHRLGANEAPPAILSIFLGSQLSATLDEIVRQVTNSKMTPEEKTTLKLGIGRIPEILLDTTDRNRTSPFAFTGNRFEFRAAGSSANCAAAMIAINAAMANQLNEFKASVDKLMEEGIGKDEAIFRILKENIIASELIRFEGDGYSEEWKQEAARRGLTNICHVPEALMHYMDNQSRAVLIGERIFNETELACRLEVELEKYTMKVQIESRVLGDLAINHIVPIAVSYQNRLLENLCRMKEIFSEEEYEVMSADRKELIKEISHRVSAIKVLVRDMTEARKVANHKENFKEKAFAYEETVRPYLESIRDHIDHLEMEIDDEIWPLPKYRELLFTK”, with “not failed”.
Then “MSKPAITLWSDAHFFSPYVLSAWVALQEKGLSFHIKTIDLDSGEHLQPTWQGYGQTRRVPLLQIDDFELSESSAIAEYLEDRFAPPTWERIYPLDLENRARARQIQAWLRSDLMPIREERPTDVVFAGAKKAPLTAEGKASAEKLFAMAEHLLVLGQPNLFGEWCIADTDLALMINRLVLHGDEVPERLVDYATFQWQRASVQRFIALSAKQSG”, with “not failed”.
On to “MSKTPRIRIPPEVRQYVFQRDKFQCQSCGKTGLETNLTIDHIIPLARGGQNDISNLHTLCFDCNRCKTDKLDSRFRRHFEI”, for which the protein production result was “failed”.
Then “MSKVVGLSSKKSRWLLQSLRDQQRHSLGTGFESANILLSPKYHLKDKDLRKIHKAARVGDAARVQQLLLGKCGVNDKDKKKRWQGPRDGGCGGGGACVEESPHTTALHIACAYGHPKVVMALIEGRCEINATDSEECTSLVKAVQCQEEECATILLENGADPNIVDAQGNSALHYAVYYKNTSLAAKLLDHEVNIEATNKVEILHQRGVNQSTIVAKCVENPGLQSTGTIFCPHLTPLPEQGLTSSLKLTVVLNLAGGGGGEVSRGGRETETDTGGFTPLLLAVSENKLQIAKFLLMKNANIHAVDNQKRTALMHAVSHDSTHLVRFVLQQGVDLFLNDAFGLTAIDYAADFKYNTKVKQHQGLEKKSKSVSENLPLIRIGVDGLLQVNGQAVEEGRKQEWSEWGASESLQAAALDGGDLTSPLPRRRNKQAGKPGTQESPSVDSKEQDGGSDLNIKEENKKGYEEWSRDFVNELTSEKFGSVACDLLPVKDSWSLNGMDPNKGRPAKRKSKEKHKVEASLMMAEHGIDL”, with “failed”; and “MSLAADKVDILYLEDDEVDIQSVERVFHKISSLIKIEIAKSGNQALDMLYGRNKENKIHPKLILLDINIPKMNGIEFLKELRDDSSFTDIEVFVLTAAYTSKDKLAFESLNIRGHLIKPLDYGEAIKLFWILQSMEGHHHHHH”, with “not failed”.
Regarding “MSLAEFRAQYLVRFWSPIPALLALGVASAYYFAITGTFWAVTGEFTRWGGHIAALLGFSPQQWSYFQLIGLNGSPLERIDGVMIIGMFAGALCAALWAGNVQLRWPTSRRRLAQGLIGGIIAGFGARLAMGCNLAAFFTGIPMFSLHAWAFMLTTVIGAWIGVKLCLLPFLRTPLRLDTAPSSLFADTASLARRARLQNRLGLLIAVLVLGFAAWRFETSLVLGLAVLFGVFFGAVIERGQICFTSAARDLWTTGRTRIAYGILLGMVVACLGTFGAIALGATPKIFWMGPNAALGGLLFGIGIVLAGGCETGWMYRAMEGQVHFWIVGIGNVIGGTLVAIFWDELGGTLALPYPKINLLEYLGAGTGLLLSLAGLMLAMLLVYLNARRFAVREGLAR”, the protein production result is recorded as “failed”.
Consider “MSLAEPRYKADIGGGSLKLPESRIIAGLLLEGVTEDQWRHAIEVENVLQRRSPGTAKRQSSLMRNRLETMGPELWQMVRDGSTQVAIQAVFAAAIKHSTLLGDFLDLVVRDQFRMFRPDLPRKMWDQYLEQCRNRDPLMPVWQDSTANKLADCVYRILVEVGYITDSKTYRLKSVRISGEVMSYLRENNEQYVIRCIQVSIEGHHHHHH”, for which the protein production entry is reported as “not failed”.
Regarding “MSLAEVGSKSVLFVCLGNICRSPIAEAVFRKLVTDEKVSDNWAIDSSAVSDWNVGRPPDPRAVSCLRNHGISTAHKARQITKEDFATFDYILCMDESNLRDLNRKSNQVKNCKAKIELLGSYDPQKQLIIEDPYYGNDSDFEVVYQQCLRCCKAFLEKTYEGHHHHHH”, the protein production entry was “not failed”.
